Measured values from patent US20250313648A1, “Binders of Chondroitin Sulfate Proteoglycan (CSPG4) Polypeptides” (Regents of the University of Minnesota, priority 2021, published 2025).

Tests used:
HEY cells = assay: Matrigel invasion assay with antibody pre-incubation; assay type: cell-based, human; conditions: 50 μg/ml antibody, 2 hours pre-incubation, 24 hours, inhibition greater than with antibody 763.74
Method: (§1) FIGS. 10A-10D. Anti-CSPG4 antibody 7H5A2 inhibits Zeb1 expression and FAK activation, cell invasion and spheroid formation. FIG. 10A) Western blot for pFAK, FAK, and ZEB1 in EOC cells plated in 1% methylcellulose in the presence of 50 μg/ml normal mouse IgG1 (nmIgG1) or anti-CSPG4 antibody 7H5A2 cultured in suspension for 24 hours. FIG. 10B) Invasion assay using HEY cells pre-incubated with control (nm IgG1) or anti-CSPG4 (763.74 and 7H5A2) antibodies at 50 μg/ml for 2 hours and then plated in invasion chambers in the presence of the antibody in the top chamber only for 24 hours. Bars represent the total number of invading cells counted in five random fields/well from duplicate wells, +/−S.D. P values determined by student's t-test with Welch's correction. n=6 from 3 separate experiments. FIG. 10C) Cell growth assay using EOC cells plated in the presence of the indicated antibodies at 50 μg/ml in 1% methylcellulose for 7 days (HEY) or 14 days (A2780 and ES-2). Cells were collected from methylcellulose culture at those time points, and re-plated overnight in normal growth media in tissue culture plates. The following day all cells were collected from each well and counted. P values determined by student's t-test with Welch's correction, comparing live cell numbers (determined by trypan blue exclusion) from each condition, n=4. […]

[1] = tested on: EOC cells (HEY, A2780, ES-2); assay: Spheroid formation / cell growth assay in 1% methylcellulose with antibody; assay type: cell-based, human; conditions: CSPG4 expressing mock transfected EOC cells, 50 μg/ml antibody
Method: as §1

[2] = tested on: FAK activation and ZEB1 expression in EOC cells; assay: Western blot for pFAK, FAK and ZEB1 in EOC cells plated in 1% methylcellulose with antibody; assay type: cell-based, human; conditions: 50 μg/ml antibody vs normal mouse IgG1, suspension culture 24 hours, all three cell lines
Method: as §1

CSPG4 = molecular target: T1, CSPG4 (Homo sapiens, UniProt Q6UVK1); assay: Specificity of antibody by western blot of CSPG4 wild type and knockout cell lysates and immunofluorescence cell staining; assay type: binding; conditions: western blot of mock and CSPG4-CRISPR cell lines; immunofluorescence of HEY parent cells
T1 construct: screening against CSPG4 wild type and knockout cell lysates via western blot and cell staining via immunofluorescence; endogenous in cells; host or cells: HEY, ES-2 and A2780 human ovarian cancer cell lines (parent/mock cells, with CSPG4-CRISPR knockouts as negative control)
Method: FIGS. 1A-1D. Antibody 7H5A2 targets CSPG4. FIG. 1A) Amino acid sequence of recombinant protein target used to generate antibody 7H5A2 (SEQ ID NO:34). Black text denotes CSPG4 region (SEQ ID NO:33), the lighter gray text corresponds to human FC sequence for protein purification. […]) Western blot with CSPG4 antibodies 763.74 (FIG. 1B) and 7H5A2 (FIG. 1C). Cells are harvested in lysis buffer and 40 μg protein was loaded in each well from the indicated mock and CSPG4-CRISPR cell lines. Alpha-tubulin is included as a loading control. FIG. 1D) Immunofluorescence staining of HEY parent cells with antibody 7H5A2. Red bar=10 μm. Magnification 600×.
Western blot: Western blots were performed using standard methods as described previously by Yang, et al., Cancer Res. 69(19):7538-47 (2009). […]
Generation of novel CSPG4 antibody: CSPG4-specific mouse monoclonal antibody 7H5A2 was generated by Promab Biotechnologies Inc (Richmond, CA) by injection of a recombinant CSPG4 protein immunogen corresponding to aa 1538-2221 of the CSPG4 core protein extracellular domain, expressed and purified from a eukaryotic expression system (see FIG. 1A). The specificity of the antibody was determined by screening against CSPG4 wild type and knockout cell lysates via western blot and cell staining via immunofluorescence (see FIGS. 1B and 1C). […]

T1 sequence (Q6UVK1 30-2322): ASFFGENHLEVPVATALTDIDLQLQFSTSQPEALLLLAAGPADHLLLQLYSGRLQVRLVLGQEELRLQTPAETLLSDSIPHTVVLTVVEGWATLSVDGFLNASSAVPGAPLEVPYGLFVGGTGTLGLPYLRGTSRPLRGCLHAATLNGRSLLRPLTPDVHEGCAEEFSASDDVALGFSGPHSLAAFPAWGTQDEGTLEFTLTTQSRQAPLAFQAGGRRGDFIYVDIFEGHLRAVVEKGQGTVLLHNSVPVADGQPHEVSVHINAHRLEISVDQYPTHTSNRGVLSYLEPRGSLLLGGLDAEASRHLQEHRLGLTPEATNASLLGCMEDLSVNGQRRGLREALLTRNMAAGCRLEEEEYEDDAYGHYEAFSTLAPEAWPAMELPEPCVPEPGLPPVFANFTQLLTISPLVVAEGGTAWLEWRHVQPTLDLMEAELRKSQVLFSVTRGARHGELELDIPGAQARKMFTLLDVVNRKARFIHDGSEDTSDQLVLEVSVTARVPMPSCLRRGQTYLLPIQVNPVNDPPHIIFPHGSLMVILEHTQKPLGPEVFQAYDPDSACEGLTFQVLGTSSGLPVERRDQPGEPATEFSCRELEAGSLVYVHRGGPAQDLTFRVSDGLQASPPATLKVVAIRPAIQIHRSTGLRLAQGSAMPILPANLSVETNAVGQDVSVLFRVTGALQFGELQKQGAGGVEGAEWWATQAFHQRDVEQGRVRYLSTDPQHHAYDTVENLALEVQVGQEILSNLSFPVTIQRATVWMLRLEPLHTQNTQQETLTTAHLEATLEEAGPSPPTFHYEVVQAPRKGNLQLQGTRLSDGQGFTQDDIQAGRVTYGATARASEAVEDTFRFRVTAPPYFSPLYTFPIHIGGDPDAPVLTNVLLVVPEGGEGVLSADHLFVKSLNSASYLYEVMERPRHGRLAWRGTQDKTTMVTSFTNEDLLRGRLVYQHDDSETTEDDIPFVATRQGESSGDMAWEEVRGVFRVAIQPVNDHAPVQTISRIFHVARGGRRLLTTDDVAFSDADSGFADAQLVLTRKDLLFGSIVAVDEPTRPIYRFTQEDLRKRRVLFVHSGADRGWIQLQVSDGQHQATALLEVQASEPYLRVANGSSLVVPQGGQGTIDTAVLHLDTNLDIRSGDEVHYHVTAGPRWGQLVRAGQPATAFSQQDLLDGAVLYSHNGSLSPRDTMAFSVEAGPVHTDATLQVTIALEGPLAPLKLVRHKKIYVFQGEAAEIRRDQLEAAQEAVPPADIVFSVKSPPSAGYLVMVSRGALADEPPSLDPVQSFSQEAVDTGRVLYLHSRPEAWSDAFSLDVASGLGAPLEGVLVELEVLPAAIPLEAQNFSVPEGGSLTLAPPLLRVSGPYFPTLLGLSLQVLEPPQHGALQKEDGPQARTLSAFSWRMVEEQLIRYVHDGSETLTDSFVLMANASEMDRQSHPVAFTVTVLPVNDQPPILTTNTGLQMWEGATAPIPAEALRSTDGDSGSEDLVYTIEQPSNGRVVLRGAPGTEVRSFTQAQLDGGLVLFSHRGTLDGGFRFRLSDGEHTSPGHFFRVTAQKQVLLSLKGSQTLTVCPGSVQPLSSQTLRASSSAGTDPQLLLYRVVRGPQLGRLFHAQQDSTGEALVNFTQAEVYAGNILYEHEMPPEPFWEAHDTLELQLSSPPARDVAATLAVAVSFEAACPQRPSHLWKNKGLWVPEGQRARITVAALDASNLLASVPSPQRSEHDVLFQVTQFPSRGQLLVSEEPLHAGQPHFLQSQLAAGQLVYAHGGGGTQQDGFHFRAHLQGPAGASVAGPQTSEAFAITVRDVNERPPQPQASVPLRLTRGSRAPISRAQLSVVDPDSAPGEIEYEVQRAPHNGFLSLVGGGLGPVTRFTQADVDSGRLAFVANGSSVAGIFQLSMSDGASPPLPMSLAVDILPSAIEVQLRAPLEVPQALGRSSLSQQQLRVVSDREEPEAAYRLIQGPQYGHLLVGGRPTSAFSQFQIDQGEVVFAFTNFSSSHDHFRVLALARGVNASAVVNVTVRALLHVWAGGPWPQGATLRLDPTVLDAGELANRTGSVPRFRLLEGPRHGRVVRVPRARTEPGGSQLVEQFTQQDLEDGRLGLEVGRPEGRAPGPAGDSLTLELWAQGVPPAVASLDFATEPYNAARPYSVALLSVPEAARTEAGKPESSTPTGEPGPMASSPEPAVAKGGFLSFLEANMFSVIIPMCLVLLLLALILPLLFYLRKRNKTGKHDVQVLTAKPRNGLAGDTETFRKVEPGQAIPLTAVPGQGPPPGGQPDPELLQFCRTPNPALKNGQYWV

B1: 7H5A2: CSPG4-specific mouse monoclonal antibody, isotype IgG1; heavy chain variable SEQ ID NO:8, light chain variable SEQ ID NO:16 (antibody, V domains shown)
VH: QVQLQQSGAELVRPGSSVKISCKASGFAFSNYWMNWVKQRPGQGLEWIGQIFPGDGDTNYNGKFKGKATLTADKSSSTAYMQLISLTSEDSAVYFCVRESDWGRGTTLTVSS
VL: DIQMTQTTSSLSASLGDRVTISCSASQGINNYLNWYQQTPDGTVKLLIFYTSSLQSGVPSRFSGSGSGTDYSLTISNLEPEDIATYYCQQYSKLPFTFGSGTKLEIKR
B1 was tested, and the EOC invasion (HEY cells) was “significantly inhibited”, the spheroid formation ([1]; 7 days (HEY) or 14 days (A2780 and ES-2)) was “significantly inhibited” and the EOC cell survival ([1]; live cell numbers by trypan blue exclusion) was “significantly inhibited”. For the same molecule, the ZEB1 expression [2] was “inhibited”, the “activation of FAK” value [2] was “inhibited” and the “recognition of CSPG4 on the cell surface” value (CSPG4) was “specifically recognizes CSPG4 on the cell surface”.
